How the values were obtained:
[1] = biological target: Kluyveromyces marxianus GCN2 HRSL domain (residues 996-1511) (Kluyveromyces marxianus); assay: SEC
[2] = biological target: ΔN-terminal GCN2 HRSL, mutant Δ(V996-N1009) of Kluyveromyces marxianus GCN2 HRSL (Kluyveromyces marxianus); assay: SEC

Row | stoichiometry N [1] | stoichiometry N [2] | Substance
1 | 2 |  | Kluyveromyces marxianus GCN2 HRSL domain (residues 996-1511) (domain or fragment)
2 |  | 2 | ΔN-terminal GCN2 HRSL, mutant Δ(V996-N1009) of Kluyveromyces marxianus GCN2 HRSL (domain or fragment)

— doi:10.1101/2024.04.24.591037
